Results from the RNAGym collection of RNA variant scans (doi:10.7554/elife.80360).

B1: CPEB3 Ribozyme (parent)
chain: GGGGGCCACAGCAGAAGCGUUCACGUCGCGGCCCCUGUCAGAUUCUGGUGAAUCUGCGAAUUCUGCUGU

Variants of: B1
Assay: self-cleavage, relative activity (ratio to wild type); higher = more cleavage; co-transcriptional

Variant	self-cleavage
GGGCGCCACAGCAGAAGCGUUCACGUCUCGGCCCCUGUCAGAUUCUGGUGAAUCUGCGAAUUCUGCUGU [G4C G28U]	0.109
GGGCGCCACAGCAGAAGCGUUCACGUCCCGGCCCCUGUCAGAUUCUGGUGAAUCUGCGAAUUCUGCUGU [G4C G28C]	0.0443
GGGCGCCACAGCAGAAGCGUUCACGUCACGGCCCCUGUCAGAUUCUGGUGAAUCUGCGAAUUCUGCUGU [G4C G28A]	0.0907
GGGCGCCACAGCAGAAGCGUUCACGUCGCGGCCCCUGUCAGAUUCUAGUGAAUCUGCGAAUUCUGCUGU [G4C G47A]	0.674
GGGCGCCACAGCAGAAGCGUUCACGUCGCGGCCCCUGUCAGAUUCUUGUGAAUCUGCGAAUUCUGCUGU [G4C G47U]	0.638
GGGCGCCACAGCAGAAGCGUUCACCUCGCGGCCCCUGUCAGAUUCUGGUGAAUCUGCGAAUUCUGCUGU [G4C G25C]	0.102
GGGCGCCACAGCAGAAGCGUUCACUUCGCGGCCCCUGUCAGAUUCUGGUGAAUCUGCGAAUUCUGCUGU [G4C G25U]	0.0499
GGGCGCCACAGCAGAAGCGUUCACAUCGCGGCCCCUGUCAGAUUCUGGUGAAUCUGCGAAUUCUGCUGU [G4C G25A]	0.0767
GGGCGCCACAGCAGAAGCGAUCACGUCGCGGCCCCUGUCAGAUUCUGGUGAAUCUGCGAAUUCUGCUGU [G4C U20A]	0.0691
GGGCGCCACAGCAGAAGCGUUCACGUCGCGGCCCCUGUCAGAUUCUGGUGAAUCUACGAAUUCUGCUGU [G4C G56A]	0.289
GGGCGCCACAGCAGAAGCGUUCACGUCGCGGCCCCUGUCAGAUUCUGGUGAAUCUCCGAAUUCUGCUGU [G4C G56C]	0.246
GGGCGCCACAGCAGAAGCGUUCACGUCGCGGCCCCUGUCACAUUCUGGUGAAUCUGCGAAUUCUGCUGU [G4C G41C]	0.146
GGGCGCCACAGCAGAAGCGUUCACGUCGCGGCCCCUGUCAAAUUCUGGUGAAUCUGCGAAUUCUGCUGU [G4C G41A]	0.0714
GGGCUCCACAGCAGAAGCGUUCACGUCGCGGCCCCUGUCAGAUUCUGGUGAAUCUGCGAAUUCUGCUGU [G4C G5U]	0.0341
GGGCGCCACAGCAGAACCGUUCACGUCGCGGCCCCUGUCAGAUUCUGGUGAAUCUGCGAAUUCUGCUGU [G4C G17C]	0.0898
GGGCGCCACAGCAGAAGCGUUCACGUCGCGGCCCCUGUCAGAUUCUGGUGAAUCUGCUAAUUCUGCUGU [G4C G58U]	0.71
GGGCGCCACAGCAGAAGCGUUCACGUCGCGGCCCCUGUCAGAUUCUGGUGAAUCUGCAAAUUCUGCUGU [G4C G58A]	0.278
GGGCGCCACAGCAGAAGCGUUCACGUCGCGGCCCCUGUCAGAUUCUGGUGAAUCUGCCAAUUCUGCUGU [G4C G58C]	0.226
GGGCGCCACAGCAGAAGCGUUCACGUCGCGCCCCCUGUCAGAUUCUGGUGAAUCUGCGAAUUCUGCUGU [G4C G31C]	0.105
GGGCGCCACAGCACAAGCGUUCACGUCGCGGCCCCUGUCAGAUUCUGGUGAAUCUGCGAAUUCUGCUGU [G4C G14C]	0.101

Variant	self-cleavage
GGGCGCCACAGCAAAAGCGUUCACGUCGCGGCCCCUGUCAGAUUCUGGUGAAUCUGCGAAUUCUGCUGU [G4C G14A]	0.223
GGGCGCCACAGCAUAAGCGUUCACGUCGCGGCCCCUGUCAGAUUCUGGUGAAUCUGCGAAUUCUGCUGU [G4C G14U]	0.149
GGGCGCCACAGCAGAAGCGUUCACGUCGCGGCCCCUGUCAGAUUCUGCUGAAUCUGCGAAUUCUGCUGU [G4C G48C]	0.675
GGGCGCCACAGCAGAAGCGUUCACGUCGCGGCCCCUGUCAGAUUCUGUUGAAUCUGCGAAUUCUGCUGU [G4C G48U]	0.755
GGGCGCCACAUCAGAAGCGUUCACGUCGCGGCCCCUGUCAGAUUCUGGUGAAUCUGCGAAUUCUGCUGU [G4C G11U]	0.262
GGGCGCCACACCAGAAGCGUUCACGUCGCGGCCCCUGUCAGAUUCUGGUGAAUCUGCGAAUUCUGCUGU [G4C G11C]	0.273
GGGCGCCACAACAGAAGCGUUCACGUCGCGGCCCCUGUCAGAUUCUGGUGAAUCUGCGAAUUCUGCUGU [G4C G11A]	0.375
GGGCGCCACAGCAGAAGCGUUCACGUCGCUGCCCCUGUCAGAUUCUGGUGAAUCUGCGAAUUCUGCUGU [G4C G30U]	0.0789
GGGCGCCACAGCAGAAGCGUUCACGUCGCAGCCCCUGUCAGAUUCUGGUGAAUCUGCGAAUUCUGCUGU [G4C G30A]	0.0414
GGGCGCCACAGCAGAAGCGUUCACGUCGCGGCCCCUGUCAGAUUCUGGUGAAUCUGCGAAUUCUGCUUU [G4C G68U]	0.98
GGGCGCCACAGCAGAAGCGUUCACGUCGCGGCCCCUGUCAGAUUCUGGUCAAUCUGCGAAUUCUGCUGU [G4C G50C]	0.621
GGGCGCCACAGCAGAAGCGUUCACGUCGCGGCCCCUGUCAGAUUCUGGUAAAUCUGCGAAUUCUGCUGU [G4C G50A]	0.654
GGGCGCCACAGCAGAAGCGUUCACGUCGCGGCCCCUGUCAGAUUCUGGUGAAUCUGCGAAUUCUCCUGU [G4C G65C]	0.242
GGGCGCCACAGCAGAAGCGUUCACGUCGCGGCCCCUGUCAGAUUCUGGUGAAUCUGCGAAUUCUUCUGU [G4C G65U]	0.294
GGGCGCCACAGCAGAAGCGUUCACGUCGCGGCCCCUGUCAGAUUCUGGUGAAUCUGCGAAUUCUACUGU [G4C G65A]	0.412
GGGCGCCACAGCAGAAGCAUUCACGUCGCGGCCCCUGUCAGAUUCUGGUGAAUCUGCGAAUUCUGCUGU [G4C G19A]	0.0646
GGGCGCCACAGCAGAAGCGUUCACGUCGCGGCCCCUUUCAGAUUCUGGUGAAUCUGCGAAUUCUGCUGU [G4C G37U]	0.0878
GGGCGCCACAGCAGAAGCGUUCACGUCGCGGCCCCUAUCAGAUUCUGGUGAAUCUGCGAAUUCUGCUGU [G4C G37A]	0.124
GGGCGCCACAGCAGAAGCGUUCACGUCGCGGCCCCUCUCAGAUUCUGGUGAAUCUGCGAAUUCUGCUGU [G4C G37C]	0.068
